B1: Proliferating cell nuclear antigen (Saccharomyces cerevisiae), P15873 (parent)
chain: MLEAKFEEASLFKRIIDGFKDCVQLVNFQCKEDGIIAQAVDDSRVLLVSLEIGVEAFQEYRCDHPVTLGMDLTSLSKILRCGNNTDTLTLIADNTPDSIILLFEDTKKDRIAEYSLKLMDIDADFLKIEELQYDSTLSLPSSEFSKIVRDLSQLSDSINIMITKETIKFVADGDIGSGSVIIKPFVDMEHPETSIKLEMDQPVDLTFGAKYLLDIIKGSSLSDRVGIRLSSEAPALFQFDLKSGFLQFFLAPKFNDEE
partner: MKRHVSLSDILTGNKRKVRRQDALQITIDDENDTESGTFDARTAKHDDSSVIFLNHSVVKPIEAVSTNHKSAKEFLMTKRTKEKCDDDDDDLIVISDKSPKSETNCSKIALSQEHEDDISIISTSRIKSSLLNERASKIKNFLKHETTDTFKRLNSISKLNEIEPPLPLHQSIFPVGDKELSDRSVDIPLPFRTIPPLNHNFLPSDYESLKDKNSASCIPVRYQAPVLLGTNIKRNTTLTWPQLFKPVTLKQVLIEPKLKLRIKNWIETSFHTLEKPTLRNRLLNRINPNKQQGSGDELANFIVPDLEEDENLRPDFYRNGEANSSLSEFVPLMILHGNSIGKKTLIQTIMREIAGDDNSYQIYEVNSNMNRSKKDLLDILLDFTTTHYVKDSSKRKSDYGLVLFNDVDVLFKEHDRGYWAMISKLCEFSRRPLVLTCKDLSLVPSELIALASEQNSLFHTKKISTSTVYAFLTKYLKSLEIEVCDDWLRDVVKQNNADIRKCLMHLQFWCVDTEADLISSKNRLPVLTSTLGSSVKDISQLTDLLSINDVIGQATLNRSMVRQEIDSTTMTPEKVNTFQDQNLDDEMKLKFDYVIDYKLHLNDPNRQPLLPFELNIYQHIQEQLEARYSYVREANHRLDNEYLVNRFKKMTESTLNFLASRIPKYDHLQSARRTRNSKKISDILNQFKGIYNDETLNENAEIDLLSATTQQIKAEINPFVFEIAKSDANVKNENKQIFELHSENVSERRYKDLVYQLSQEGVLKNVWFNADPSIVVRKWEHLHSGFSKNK
B2: Telomere length regulation protein ELG1 (Saccharomyces cerevisiae), Q12050 (parent)
chain: B1 partner

Variants of B1 are the subject of one test. The note with it: with elg1_yeast ELG1, Q12050.
In the case of K164R, the “effect of a mutation on the interaction” value is recorded as “decreasing interaction”.

The next test covers variants of B2. Conditions: with pcna_yeast POL30, P15873.
I93K: the “effect of a mutation on the interaction” value was “disrupting interaction”.

Take I121A: the “effect of a mutation on the interaction” value is “disrupting interaction”.

For the variant I28A, the “effect of a mutation on the interaction” value was “disrupting interaction”.

As to I122A, the “effect of a mutation on the interaction” value is given as “disrupting interaction”.

In another test the parent is B2. The note with it: with smt3_yeast SMT3, Q12306.
Chain of smt3_yeast SMT3, Q12306 (Q12306 whole entry): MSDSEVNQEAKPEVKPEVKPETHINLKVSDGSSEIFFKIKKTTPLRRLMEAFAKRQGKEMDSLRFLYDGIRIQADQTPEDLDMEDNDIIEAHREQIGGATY
I93K: the “effect of a mutation on the interaction” value is reported as “decreasing interaction”.

As to I121A, the “effect of a mutation on the interaction” value is given as “decreasing interaction”.

I28A: the “effect of a mutation on the interaction” value is “decreasing interaction”.

As to I122A, the “effect of a mutation on the interaction” value was “decreasing interaction”.

The next test covers variants of B2. The note with it: with smt3_yeast SMT3, Q12306. This is another data set of the same source.
For I93K, the “effect of a mutation on the interaction” value is on record as “disrupting interaction”.

As for I121A, the “effect of a mutation on the interaction” value is on record as “disrupting interaction”.

For I28A, the “effect of a mutation on the interaction” value is “disrupting interaction”.

With I122A, the “effect of a mutation on the interaction” value is “disrupting interaction”.

Variants of B2 are the subject of a further test. The note with it: with pcna_yeast POL30, P15873. The source holds these as a separate data set.
For V58A, the “effect of a mutation on the interaction” value is listed as “decreasing interaction”.

Turning to S57A, the “effect of a mutation on the interaction” value is recorded as “decreasing interaction”.

In another test the parent is B2. Conditions: with pcna_yeast POL30, P15873. The source holds these as a separate data set.
On to V59A, for which the “effect of a mutation on the interaction” value is given as “decreasing interaction”.

Values taken from IntAct's records for PubMed 20571511.
